For orientation: Kd means the concentration at which binding is half-saturated.

Results on 17 sequences are retold here after the Immune Epitope Database (IEDB).

Bounds are passed on as bounds.

One assay has as its target HLA-A*30:02. In words: IEDB peptide-MHC binding, purified MHC/competitive/radioactivity; filed as Kd, often an IC50 or EC50 that approximates it; ≥ and ≤ were set here for values at or beyond the usual limits of such assays.
The target in a further assay is HLA-A*01:01. Described as above.
The target of another assay is HLA-A*24:02. The assay is described as above.
In another assay the target is HLA-A*29:02. The assay is described as above.
The next assay has as its target HLA-A*23:01. Described as above.
The target in another assay is HLA-A*26:01. The description is as above.
A further assay deals with HLA-A*33:01. The assay is described as above.
In another assay the target is HLA-A*68:01. Described as above.
Assay [1] has as its target HLA-A*31:01. In words: IEDB peptide-MHC binding, purified MHC/direct/fluorescence; filed as Kd, often an IC50 or EC50 that approximates it; ≥ and ≤ were set here for values at or beyond the usual limits of such assays. Particulars: source organism: SARS-CoV1.
Another assay concerns the target HLA-A*30:01. In words: IEDB peptide-MHC binding, purified MHC/competitive/radioactivity; filed as Kd, often an IC50 or EC50 that approximates it; ≥ and ≤ were set here for values at or beyond the usual limits of such assays. Conditions: source organism: Vaccinia virus WR.
For another assay, the target named is HLA-A*11:01. Described as above. Conditions: source organism: Vaccinia virus WR.
Another assay has as its target HLA-A*03:01. Described as above. Particulars: source organism: Vaccinia virus WR.
Assay [2] has as its target HLA-A*31:01. The description is as above. Conditions: source organism: Vaccinia virus WR.
Setting [3] is: source organism: SARS coronavirus Tor2.
Setting [4] is: source organism: Mammarenavirus brazilense.
Setting [5] is: source organism: Lassa virus Josiah.
The mark [6] stands for this setting: source organism: Vaccinia virus WR.

In the case of PTLVPQEHY, the Kd is 4.51 µM in the assay with HLA-A*30:02 (setting [3]); 9.07 µM with HLA-A*01:01 (setting [3]); ≥ 77.6 µM with HLA-A*24:02 (setting [3]); 10.9 µM in the assay with HLA-A*29:02 (setting [3]); ≥ 77.8 µM with HLA-A*23:01 (setting [3]); ≥ 102 µM in the assay with HLA-A*26:01 (setting [3]).
Take QYIKWPWYVW: the Kd with HLA-A*30:02 (setting [3]) is 10.6 µM; with HLA-A*01:01 (setting [3]), ≥ 32 µM; with HLA-A*24:02 (setting [3]), 0.00248 µM; with HLA-A*29:02 (setting [3]) it was 3.88 µM; in the assay with HLA-A*23:01 (setting [3]) it was 0.000784 µM; with HLA-A*26:01 (setting [3]), ≥ 69.7 µM.
With MSFLEKDAPY, the Kd with HLA-A*30:02 (setting [3]) is 0.00307 µM; with HLA-A*01:01 (setting [3]) it was 0.0644 µM; with HLA-A*24:02 (setting [3]), ≥ 70.3 µM; in the assay with HLA-A*29:02 (setting [3]) it was 0.224 µM; in the assay with HLA-A*23:01 (setting [3]), ≥ 70 µM; with HLA-A*26:01 (setting [3]) it was 0.262 µM.
As for TTTGIGYQPY, the Kd with HLA-A*30:02 (setting [3]) is 0.204 µM; in the assay with HLA-A*01:01 (setting [3]), 0.126 µM; in the assay with HLA-A*24:02 (setting [3]) it was ≥ 70.3 µM; with HLA-A*29:02 (setting [3]), 0.0088 µM; in the assay with HLA-A*23:01 (setting [3]) it was ≥ 70 µM; with HLA-A*26:01 (setting [3]), 0.0568 µM.
Turning to NYFKKVDGI, the Kd with HLA-A*30:02 (setting [3]) was 11.8 µM; with HLA-A*01:01 (setting [3]), ≥ 51.7 µM; with HLA-A*24:02 (setting [3]), ≥ 20.3 µM; in the assay with HLA-A*29:02 (setting [3]) it was 2.53 µM; with HLA-A*23:01 (setting [3]), 11.6 µM; with HLA-A*26:01 (setting [3]), ≥ 77.9 µM.
For FIAQSKGLY, the Kd with HLA-A*30:02 (setting [3]) is 0.0245 µM; in the assay with HLA-A*01:01 (setting [3]), 0.465 µM; in the assay with HLA-A*24:02 (setting [3]), ≥ 77.6 µM; with HLA-A*29:02 (setting [3]) it was 0.00494 µM; with HLA-A*23:01 (setting [3]), ≥ 77.8 µM; with HLA-A*26:01 (setting [3]), 0.0884 µM.
Turning to RYNLDPDSI, the figures for the Kd with HLA-A*24:02 (setting [4]), with HLA-A*29:02 (setting [4]) and with HLA-A*23:01 (setting [4]) were 17.7 µM, ≥ 34.1 µM and 7.49 µM, respectively.
As to GIDVTDLFA, the Kd with HLA-A*30:02 (setting [5]) is ≥ 40.5 µM; in the assay with HLA-A*01:01 (setting [5]), 0.261 µM; in the assay with HLA-A*24:02 (setting [5]), ≥ 77.5 µM; with HLA-A*29:02 (setting [5]), ≥ 78.9 µM; in the assay with HLA-A*23:01 (setting [5]), ≥ 68.4 µM; with HLA-A*26:01 (setting [5]), ≥ 77.9 µM.
For the sequence QLFKPLTKK, the figures for the Kd with HLA-A*33:01 (setting [3]), with HLA-A*68:01 (setting [3]) and in the assay with HLA-A*31:01 [1] were ≥ 77.7 µM, 16.8 µM and 0.981 µM, respectively.
SYATHHDKF: the Kd with HLA-A*30:02 (setting [3]) is ≥ 85.7 µM; in the assay with HLA-A*01:01 (setting [3]), ≥ 39.6 µM; with HLA-A*24:02 (setting [3]), ≥ 105 µM; with HLA-A*29:02 (setting [3]), ≥ 22.6 µM; with HLA-A*23:01 (setting [3]) it was ≥ 90.7 µM; with HLA-A*26:01 (setting [3]) it was ≥ 77.9 µM.
With VTFQGKFKK, the Kd came out at 8.58 µM in the assay with HLA-A*33:01 (setting [3]), 0.0133 µM with HLA-A*68:01 (setting [3]) and 0.0703 µM with HLA-A*31:01 [1].
Consider RMYIFFASF, for which the Kd was 1.24 µM with HLA-A*30:02 (setting [3]); ≥ 20.9 µM with HLA-A*01:01 (setting [3]); 0.106 µM with HLA-A*24:02 (setting [3]); 2.1 µM with HLA-A*29:02 (setting [3]); 0.0753 µM with HLA-A*23:01 (setting [3]); 7.04 µM in the assay with HLA-A*26:01 (setting [3]).
For YTFFSYLMK, the Kd is 0.473 µM with HLA-A*30:01; 0.000563 µM in the assay with HLA-A*11:01; 3.01 µM with HLA-A*33:01 (setting [6]); 0.00977 µM with HLA-A*03:01; 0.000813 µM in the assay with HLA-A*68:01 (setting [6]); 3.96 µM with HLA-A*31:01 [2].
For QMISSIDRFF, the Kd with HLA-A*24:02 (setting [4]) was found to be 4.69 µM; with HLA-A*29:02 (setting [4]) it was 1.85 µM; in the assay with HLA-A*23:01 (setting [4]) it was 0.758 µM.
In the case of YSELRPDTRY, the Kd with HLA-A*30:02 (setting [3]) is 0.165 µM; in the assay with HLA-A*01:01 (setting [3]) it was 0.00622 µM; in the assay with HLA-A*24:02 (setting [3]) it was ≥ 36 µM; in the assay with HLA-A*29:02 (setting [3]), 0.14 µM; with HLA-A*23:01 (setting [3]), ≥ 70 µM; in the assay with HLA-A*26:01 (setting [3]), 12 µM.
Take SWFITQRNF: the dissociation constant Kd with HLA-A*30:02 (setting [3]) was 0.000215 µM; in the assay with HLA-A*01:01 (setting [3]), ≥ 78.1 µM; in the assay with HLA-A*24:02 (setting [3]), ≥ 40 µM; with HLA-A*29:02 (setting [3]), 0.0162 µM; in the assay with HLA-A*23:01 (setting [3]), 3.9 µM; with HLA-A*26:01 (setting [3]) it was ≥ 77.9 µM.
As for DYLVSTQEF, the dissociation constant (Kd) was 3.35 µM with HLA-A*30:02 (setting [3]); ≥ 78.1 µM with HLA-A*01:01 (setting [3]); ≥ 43.9 µM with HLA-A*24:02 (setting [3]); 0.259 µM with HLA-A*29:02 (setting [3]); 18.8 µM in the assay with HLA-A*23:01 (setting [3]); 14.5 µM in the assay with HLA-A*26:01 (setting [3]).
